The target of this test is t-SNARE complex (syntaxin HT and SNAP-25) (rat) (UniProt P32851). Nature of the test: EPR spectroscopy.

Results on one substance are retold here after article PMC2493294.

Broadly, the Kd is a measure of binding affinity in units of concentration. High values mean weaker binding, low ones tighter binding.

Turning to “complexin I C105A R56C, spin-labeled at position 56 (from UniProt P63041 2-134) (natural protein)”, the Kd was 50 µM.
